This is an account of results in US20230301926A1 (EVOX THERAPEUTICS, published 2023).

Assay [1] addresses T1, human serum albumin (labelled with Alexa Fluor 488) (human, UniProt P02768 25-609, Alexa Fluor 488 label (site not stated)).
T1 construct: Used at 80 µg/ml in the Optiprep gradient / dot-blot assays; also called HSA
Nature of the assay: Optiprep gradient and dot-blot of 4e10 HEK EVs incubated with 80 µg/ml Alexa Fluor 488 HSA. As for the experimental part: This experiment was performed by incubating overnight at 4° C. 4e¹⁰ HEK EVs expressing the constructs detailed above with 80 µg/ml human serum albumin (labelled with Alexa Fluor 488) and a mix of tetraspanin antibody. The next day, EVs were separated by Optiprep gradient ultracentrifugation and 300 µl fractions were collected, 100 µl from each fraction were used for DOTBLOT analysis and 50 µl from three subsequent fractions were pulled and used for imaging (widefield and dSTORM) […] (CD9, CD63 and CD81, 1:100) labelled with Alexa […].

For a further assay, the target named is T2, FITC-human albumin (human, UniProt P02768 25-609, FITC label (site not stated)).
T2 construct: also called fluorescein isothiocyanate (FITC)-labeled albumin; FITC-albumin
T2 sequence (P02768 25-609 limits assumed): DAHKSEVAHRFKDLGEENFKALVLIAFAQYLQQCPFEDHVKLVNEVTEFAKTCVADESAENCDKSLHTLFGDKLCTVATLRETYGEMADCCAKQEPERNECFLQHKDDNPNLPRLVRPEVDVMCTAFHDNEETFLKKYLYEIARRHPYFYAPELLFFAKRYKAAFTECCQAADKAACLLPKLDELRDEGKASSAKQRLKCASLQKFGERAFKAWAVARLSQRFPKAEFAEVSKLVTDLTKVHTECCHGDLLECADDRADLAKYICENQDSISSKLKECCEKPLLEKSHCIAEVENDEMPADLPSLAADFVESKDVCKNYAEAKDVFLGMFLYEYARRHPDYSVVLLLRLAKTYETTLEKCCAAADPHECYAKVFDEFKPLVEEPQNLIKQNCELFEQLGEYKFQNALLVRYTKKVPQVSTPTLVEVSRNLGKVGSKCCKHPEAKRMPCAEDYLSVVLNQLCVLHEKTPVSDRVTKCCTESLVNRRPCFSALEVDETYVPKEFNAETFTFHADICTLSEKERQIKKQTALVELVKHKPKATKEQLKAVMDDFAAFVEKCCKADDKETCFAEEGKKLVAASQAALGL
Nature of the assay: in vitro albumin binding assay, protocol of Example 7.

The next assay concerns the target T3, mouse serum albumin (mouse, UniProt P07724 25-608).
T3 construct: Albumin picked up by the EVs in the circulation of the mice
Nature of the assay: EVs recovered from mouse serum 10 min after injection, gradient separation and dot-blot with anti-mouse serum albumin antibody. As for the experimental part: Mice were injected with mCD63-ABD-2nd loop Nluc HEK EVs or mCD63-Nluc (no ABD control). Serum was collected 10 minutes after injection and purified with size-exclusion columns (qEV) to isolate EVs. 2.5×10¹⁰ EVs were then incubated overnight at 4° C. with an antibody anti-mouse serum albumin (labelled with FITC) and a mix of tetraspanin antibodies (human specific CD9, CD63 and CD81, 1:100) labelled with Alexa Fluor 647. The next day, EVs were separated by Optiprep gradient ultracentrifugation and 300 µl fractions were collected, 100 µl from each fraction were used for DOTBLOT analysis and 50 µl from three subsequent fractions were pulled and used for imaging (widefield)

For assay [2], the target named is T1, human serum albumin (labelled with …). Briefly: Optiprep gradient ultracentrifugation and dot-blot of EVs incubated with Alexa Fluor 488 HSA. How it is done:
Gradient separation was performed to assess the binding of albumin to EVs expressing ABD on the surface. The fusion constructs tested were: [0235] mCD63-Nluc (concentration: 1.37×10¹² particles/ml) [0236] mCD63-ABD-2nd loop Nluc (concentration: 6.5×10¹¹ particles/ml)
HEK EVs with albumin binding domain fused to different or both CD63 loops were incubated overnight at 4° C. 5 µl with 80 µg/ml human serum albumin (labelled with Alexa Fluor 488) and a mix of tetrspanin antibodies (CD9, CD63 and CD81, 1:100) labelled with Alexa Fluor 647. The next day, EVs were separated by Optiprep gradient ultracentrifugation and 300 µl fractions were collected, 100 µl from each fraction were used for DOTBLOT analysis and 50 µl from three subsequent fractions were pooled and used for imaging (widefield and dSTORM)

T1 sequence (P02768 25-609 limits assumed): as above

B1: hCD81-ABD-2ndloop-Nluc (other)
chain: MGVEGCTKCIKYLLFVFNFVFWLAGGVILGVALWLRHDPQTTNLLYLEMHLGDKPAPNTFYVGIYILIAVGAVMMFVGFLGCYGAIQESQCLLGTFFTCLVILFACEVAAGIWGFVNKDQIAKDVKQFYDQALQQAVVDDDANNAKAVVKTFHETLDCCGSTRQHDEAVDANSLAEAKVLANRELDKYGVSDFYKRLINKAKTVEGVEALKLHILAALPTRSTLTALTTSVLKNNLCPSGSNIISNLFKEDCHQKIDDLFSGKLYLIGIAAIVVAVIMIFEMILSMVLCCGIRNSSVYGSVFTLEDFVGDWRQTAGYNLDQVLEQGGVSSLFQNLGVSVTPIQRIVLSGENGLKIDIHVIIPYEGLSGDQMGQIEKIFKVVYPVDDHHFKVILHYGTLVIDGVTPNMIDYFGRPYEGIAVFDGKKITVTGTLWNGNKIIDERLINPDGSLLFRVTINGVTGWRLCERILA
notes: also called hCD81-ABD 2 nd-Nluc
Consider B1, for which the binding result in assay [1] is reported as “binds”.

B2: Lamp2b-ABD-NanoLuc (other)
chain: LKFEQHDEAVDANSLAEAKVLANRELDKYGVSDFYKRLINKAKTVEGVEALKLHILAALPFETGGAPMHISQAVHAAHAEINEAGRSIINFEKLCTSVYDFFVWLGRGHLLGRLAAIVGKQVLLGRKVVVVRSHCHWNDLAVIPAGVVHNWDFEPRKVSPSKPSFQEFVDWENVSPELNSTDQPFLCTGSGSGSGSGSLKPAGILIPIIVGAGLSGLIIVIVIAYVIGRRKSYAGAQTLGGGGSYIPEAPRDGQAYVRKDGEWVLLSTFLSPANGTPTPTPTPTGRSLYPSLEDLKVDKVIQAQTAFSANPANPAILSEASAPIPHDGNLYPRLYPELSQYMGLSLEGGQLGTPTPTPTPTGGSVFTLEDFVGDWRQTAGYNLDQVLEQGGVSSLFQNLGVSVTPIQRIVLSGENGLKIDIHVIIPYEGLSGDQMGQIEKIFKVVYPVDDHHFKVILHYGTLVIDGVTPNMIDYFGRPYEGIAVFDGKKITVTGTLWNGNKIIDERLINPDGSLLFRVTINGVTGWRLCERILA
notes: also called Lamp2B-ABD-Nluc; Lamp2b-ABD-Nluc
Turning to B2, the binding result (in assay [1]; with FITC-human albumin) was “binds” in each case.

B3: hCD81-ABD-2x-Nluc (ABD present in both loops) (other)
chain: MGVEGCTKCIKYLLFVFNFVFWLAGGVILGVALWLRHDPQTTNLLYLEMHLAEAKVLANRELDKYGVSDFYKRLINKAKTVEGVEALKLHILAALPMHLGDKPAPNTFYVGIYILIAVGAVMMFVGFLGCYGAIQESQCLLGTFFTCLVILFACEVAAGIWGFVNKDQIAKDVKQFYDQALQQAVVDDDANNAKAVVKTFHETLDCCGSTRQHDEAVDANSLAEAKVLANRELDKYGVSDFYKRLINKAKTVEGVEALKLHILAALPTRSTLTALTTSVLKNNLCPSGSNIISNLFKEDCHQKIDDLFSGKLYLIGIAAIVVAVIMIFEMILSMVLCCGIRNSSVYGSVFTLEDFVGDWRQTAGYNLDQVLEQGGVSSLFQNLGVSVTPIQRIVLSGENGLKIDIHVIIPYEGLSGDQMGQIEKIFKVVYPVDDHHFKVILHYGTLVIDGVTPNMIDYFGRPYEGIAVFDGKKITVTGTLWNGNKIIDERLINPDGSLLFRVTINGVTGWRLCERILA
notes: also called hCD81-ABDX2-Nluc
As for B3, the binding result in assay [1] is on record as “binds”.

B4: hCD81-ABD-1stloop-Nluc (other)
chain: MGVEGCTKCIKYLLFVFNFVFWLAGGVILGVALWLRHDPQTTNLLYLEMHLAEAKVLANRELDKYGVSDFYKRLINKAKTVEGVEALKLHILAALPMHLGDKPAPNTFYVGIYILIAVGAVMMFVGFLGCYGAIQESQCLLGTFFTCLVILFACEVAAGIWGFVNKDQIAKDVKQFYDQALQQAVVDDDANNAKAVVKTFHETLDCCGSTRSTLTALTTSVLKNNLCPSGSNIISNLFKEDCHQKIDDLFSGKLYLIGIAAIVVAVIMIFEMILSMVLCCGIRNSSVYGSVFTLEDFVGDWRQTAGYNLDQVLEQGGVSSLFQNLGVSVTPIQRIVLSGENGLKIDIHVIIPYEGLSGDQMGQIEKIFKVVYPVDDHHFKVILHYGTLVIDGVTPNMIDYFGRPYEGIAVFDGKKITVTGTLWNGNKIIDERLINPDGSLLFRVTINGVTGWRLCERILA
notes: also called hCD81-ABD 1 st-Nluc
Turning to B4, the binding result in assay [1] is on record as “binds”.

B5: hCD9-ABD-1stloop-Nluc (other)
chain: MPVKGGTKCIKYLLFGFNFIFWLAGIAVLAIGLWLRFDSQTKSIMHLAEAKVLANRELDKYGVSDFYKRLINKAKTVEGVEALKLHILAALPMHFEQETNNNNSSFYTGVYILIGAGALMMLVGFLGCCGAVQESQCMLGLFFGFLLVIFAIEIAAAIWGYSHKDEVIKEVQEFYKDTYNKLKTKDEPQRETLKAIHYALNCCGLTRAGGVEQFISDICPKKDVLETFTVKSCPDAIKEVFDNKFHIIGAVGIGIAVVMIFGMIFSMILCCAIRRNREMVGSVFTLEDFVGDWRQTAGYNLDQVLEQGGVSSLFQNLGVSVTPIQRIVLSGENGLKIDIHVIIPYEGLSGDQMGQIEKIFKVVYPVDDHHFKVILHYGTLVIDGVTPNMIDYFGRPYEGIAVFDGKKITVTGTLWNGNKIIDERLINPDGSLLFRVTINGVTGWRLCERILA
notes: also called hCD9-ABD 1 st-Nluc
For the molecule B5, the binding result in assay [1] is listed as “binds”.

B6: hCD9-ABD-2ndloop-Nluc (other)
chain: MPVKGGTKCIKYLLFGFNFIFWLAGIAVLAIGLWLRFDSQTKSIMHFEQETNNNNSSFYTGVYILIGAGALMMLVGFLGCCGAVQESQCMLGLFFGFLLVIFAIEIAAAIWGYSHKDEVIKEVQEFYKDTYNKLKTKDEPQRETLKAIHYALNCCGLTRQHDEAVDANSLAEAKVLANRELDKYGVSDFYKRLINKAKTVEGVEALKLHILAALPTRAGGVEQFISDICPKKDVLETFTVKSCPDAIKEVFDNKFHIIGAVGIGIAVVMIFGMIFSMILCCAIRRNREMVGSVFTLEDFVGDWRQTAGYNLDQVLEQGGVSSLFQNLGVSVTPIQRIVLSGENGLKIDIHVIIPYEGLSGDQMGQIEKIFKVVYPVDDHHFKVILHYGTLVIDGVTPNMIDYFGRPYEGIAVFDGKKITVTGTLWNGNKIIDERLINPDGSLLFRVTINGVTGWRLCERILA
notes: also called hCD9-ABD 2 nd-Nluc
Regarding B6, in assay [1], the binding result is reported as “binds”.

B7: mCD63-ABD 2nd loop-NanoLuc (other)
chain: MAVEGGMKCVKFLLYVLLLAFCACAVGLIAIGVAVQVVLKQAMHITHETTAGSLLPVVIIAVGAFLFLVAFVGCCGACKENYCLMITFAIFLSLIMLVEVAVAIAGYVFRDQVKSEFNKSFQQQMQNYLKDNKTATILDKLQKENNCCGATRRTQHDEAVDANSLAEAKVLANRELDKYGVSDFYKRLINKAKTVEGVEALKLHILAALPRTCTSGTRSNYTDWENIPGMAKDRVPDSCCINITVGCGNDFKESTIHTQGCVETIAIWLRKNILLVAAAALGIAFVEVLGIIFSCCLVKSIRSGYEVMGSGSGSGSGSVFTLEDFVGDWRQTAGYNLDQVLEQGGVSSLFQNLGVSVTPIQRIVLSGENGLKIDIHVIIPYEGLSGDQMGQIEKIFKVVYPVDDHHFKVILHYGTLVIDGVTPNMIDYFGRPYEGIAVFDGKKITVTGTLWNGNKIIDERLINPDGSLLFRVTINGVTGWRLCERILAHHHHHH
notes: also called mCD63-ABD-2nd loop Nluc; mCD63-ABD 2nd loop-Nluc
Consider B7, for which the binding result in the assay with mouse serum albumin is given as “binds”.

B8: hCD9-ABD-2x-Nluc (ABD present in both loops) (other)
chain: MPVKGGTKCIKYLLFGFNFIFWLAGIAVLAIGLWLRFDSQTKSIMHLAEAKVLANRELDKYGVSDFYKRLINKAKTVEGVEALKLHILAALPMHFEQETNNNNSSFYTGVYILIGAGALMMLVGFLGCCGAVQESQCMLGLFFGFLLVIFAIEIAAAIWGYSHKDEVIKEVQEFYKDTYNKLKTKDEPQRETLKAIHYALNCCGLTRQHDEAVDANSLAEAKVLANRELDKYGVSDFYKRLINKAKTVEGVEALKLHILAALPTRAGGVEQFISDICPKKDVLETFTVKSCPDAIKEVFDNKFHIIGAVGIGIAVVMIFGMIFSMILCCAIRRNREMVGSVFTLEDFVGDWRQTAGYNLDQVLEQGGVSSLFQNLGVSVTPIQRIVLSGENGLKIDIHVIIPYEGLSGDQMGQIEKIFKVVYPVDDHHFKVILHYGTLVIDGVTPNMIDYFGRPYEGIAVFDGKKITVTGTLWNGNKIIDERLINPDGSLLFRVTINGVTGWRLCERILA
notes: also called hCD9-ABDX2-Nluc
For B8, in assay [1], the binding result is listed as “binds”.

B9: mCD63-NanoLuc (other)
chain: MAVEGGMKCVKFLLYVLLLAFCACAVGLIAIGVAVQVVLKQAMHITHETTAGSLLPVVIIAVGAFLFLVAFVGCCGACKENYCLMITFAIFLSLIMLVEVAVAIAGYVFRDQVKSEFNKSFQQQMQNYLKDNKTATILDKLQKENNCCGATRSNYTDWENIPGMAKDRVPDSCCINITVGCGNDFKESTIHTQGCVETIAIWLRKNILLVAAAALGIAFVEVLGIIFSCCLVKSIRSGYEVMGSGSGSGSGSVFTLEDFVGDWRQTAGYNLDQVLEQGGVSSLFQNLGVSVTPIQRIVLSGENGLKIDIHVIIPYEGLSGDQMGQIEKIFKVVYPVDDHHFKVILHYGTLVIDGVTPNMIDYFGRPYEGIAVFDGKKITVTGTLWNGNKIIDERLINPDGSLLFRVTINGVTGWRLCERILAHHHHHH
notes: Control fusion of CD63 and nanoluc reporter lacking ABD, carried on EVs in the assays; His tag of the entry is called optional; also called mCD63-Nluc; control EVs
On to B9, for which, in assay [2], the binding result was “no binding (tested: 80 µg/ml human serum albumin)”.
